Assay results taken from the supplement of paper PMC7877785.
± gives the uncertainty stated by the source.

Experiment: self-splicing fitness, log relative to wild type (ln ratio); higher = more splicing; Tetrahymena group I intron in knt gene, E. coli kanamycin selection, DiMSum; sequences stand for … in CUCUCU…GGAGGGAAAAGUUAUCAGGCAUGCACCUGGUAGCUAGUCUUUAAACCAAUAGAUUGCAUCGGUUUAAAAGGCAAGACCGUCAAAUUGCGGGAAAGGGGUCAACAGCCGUUCAGUACCAAGUCUCAGGGGAAACUUUGAGAUGGCCUUGCAAAGGGUAUGGUAAUAAGCUGACGGACAUGGUCCUAACCACGCAGCCAAGUCCUAAGUCAACAGAUCUUCUGUUGAUAUGGAUGCAGUUCACAGACUAAAUGUCGGUCGGGGAAGAUGUAUUCUUCUCAUAAGAUAUAGUCGGACCUCUCCUUAAUGGGAGCUAGCGGAUGAAGUGAUGCAACACUGGAGCCGCUGGGAACUAAUUUGUAUGCGAAAGUAUAUUGAUUAGUUUUGGAGUACUCGUGGUCG
Method in brief: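 Fitness was computed with DiMSum as the error-weighted combination of replicate fold changes, kanamycin versus none, each normalised to wild type. The library randomised all eight intron nucleotides of the P1ex region, with the intron placed in the knt kanamycin-resistance gene on pET-22b(+) in E. coli BL21(DE3). Six replicate transformations were grown overnight at 37°C or 30°C on LB agar with or without 25 μg/mL kanamycin, plus 100 μg/mL carbenicillin, 50 μM IPTG and 0.2% rhamnose. Pooled colonies were amplicon-sequenced on an Illumina HiSeq 2500.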

Row | Sequence | self-splicing fitness (ln) (30 °C) | self-splicing fitness (ln) (37 °C)
1 | UGCGAGCAAUAUUACGCUUA | -1.98 ± 0.16 | -1.46 ± 0.22
2 | UGCGAGCAAUAUUACGGCCU | -1.85 ± 0.2 | -1.45 ± 0.24
3 | UGCGAGCAAUAUUACGGCGA | -0.753 ± 0.099 | -0.754 ± 0.11
4 | UGCGAGCAAUAUUACGGCUU | -1.76 ± 0.2 | -2.61 ± 0.33
5 | UGCGAGCAAUAUUACGGGGA | -2.81 ± 0.39 | -1.9 ± 0.29
6 | UGCGAGCAAUAUUACGGGGG | -3.34 ± 0.26 | -2.36 ± 0.29
7 | UGCGAGCAAUAUUACGGGUC | -4.21 ± 0.27 | -2.72 ± 0.3
8 | UGCGAGCAAUAUUACGGUUA | -0.797 ± 0.11 | -0.443 ± 0.12
9 | UGCGAGCAAUAUUACGUAAC | -3.17 ± 0.18 | -3.09 ± 0.27
10 | UGCGAGCAAUAUUACGUCAG | -2.69 ± 0.27 | -2.11 ± 0.43
11 | UGCGAGCAAUAUUACGUGAC | -3.73 ± 0.36 | -2.31 ± 0.26
12 | UGCGAGCAAUAUUACGUGUU | -3.58 ± 0.43 | -2.47 ± 0.32
13 | UGCGAGCAAUAUUACGUUGU | -2.79 ± 0.18 | -3.05 ± 0.27
14 | UGCUAGCAAUAUUACGAAUC | -3.2 ± 0.15 | -3.95 ± 0.29
15 | UGCUAGCAAUAUUACGACGU | -1.71 ± 0.22 | -2.36 ± 0.32
16 | UGCUAGCAAUAUUACGAGGG | -2.22 ± 0.15 | -2.43 ± 0.19
17 | UGCUAGCAAUAUUACGCGCC | -1.26 ± 0.2 | -0.477 ± 0.29
18 | UGCUAGCAAUAUUACGCGGG | -3.41 ± 0.28 | -2.38 ± 0.31
19 | UGCUAGCAAUAUUACGGACU | -0.341 ± 0.1 | -0.639 ± 0.088
20 | UGCUAGCAAUAUUACGGCAG | -2.52 ± 0.12 | -1.1 ± 0.13
21 | UGCUAGCAAUAUUACGGUCG | 0.0903 ± 0.098 | 0.362 ± 0.14
22 | UGCUAGCAAUAUUACGUACC | – | 0.784 ± 0.4
23 | UGCUAGCAAUAUUACGUAGA | -2.3 ± 0.18 | -0.929 ± 0.17
24 | UGCUAGCAAUAUUACGUAUA | -2.81 ± 0.24 | -1.1 ± 0.16
25 | UGCUAGCAAUAUUACGUGCU | -2.31 ± 0.16 | -2 ± 0.17
26 | UGCUAGCAAUAUUACGUGGG | -3.58 ± 0.27 | -3.28 ± 0.35

Row | Sequence | self-splicing fitness (ln) (30 °C) | self-splicing fitness (ln) (37 °C)
27 | UGCUAGCAAUAUUACGUUAA | -2.54 ± 0.14 | -0.941 ± 0.11
28 | UGCUAGCAAUAUUACGUUGG | -3.3 ± 0.19 | -2.49 ± 0.2
29 | UGGAAGCAAUAUUACGAACG | -0.465 ± 0.24 | -0.592 ± 0.32
30 | UGGAAGCAAUAUUACGACAA | -1.46 ± 0.14 | -1.88 ± 0.17
31 | UGGAAGCAAUAUUACGACCU | 0.308 ± 0.11 | 0.699 ± 0.12
32 | UGGAAGCAAUAUUACGAGGA | -2.94 ± 0.4 | -2.82 ± 0.4
33 | UGGAAGCAAUAUUACGAGGG | – | -1.89 ± 0.34
34 | UGGAAGCAAUAUUACGCAAA | -1.24 ± 0.16 | -0.937 ± 0.16
35 | UGGAAGCAAUAUUACGCACU | -0.488 ± 0.12 | -0.124 ± 0.15
36 | UGGAAGCAAUAUUACGCAUU | -2.63 ± 0.27 | –
37 | UGGAAGCAAUAUUACGCCCA | – | -0.992 ± 0.45
38 | UGGAAGCAAUAUUACGCCCG | -0.383 ± 0.22 | 0.191 ± 0.27
39 | UGGAAGCAAUAUUACGCGUC | -0.409 ± 0.2 | -1.89 ± 0.27
40 | UGGAAGCAAUAUUACGGACG | -1.13 ± 0.16 | 0.0618 ± 0.28
41 | UGGAAGCAAUAUUACGGAGU | -3.51 ± 0.22 | -2.75 ± 0.22
42 | UGGAAGCAAUAUUACGGCAC | – | -1.36 ± 0.37
43 | UGGAAGCAAUAUUACGGCCC | -0.223 ± 0.15 | 0.256 ± 0.18
44 | UGGAAGCAAUAUUACGGCUG | -0.475 ± 0.099 | 1.02 ± 0.12
45 | UGGAAGCAAUAUUACGGGUG | -1.07 ± 0.063 | -0.839 ± 0.083
46 | UGGAAGCAAUAUUACGGUAA | -1.48 ± 0.18 | -0.845 ± 0.14
47 | UGGAAGCAAUAUUACGGUAC | -4.18 ± 0.39 | -1.5 ± 0.25
48 | UGGAAGCAAUAUUACGGUAU | -3.09 ± 0.38 | –
49 | UGGAAGCAAUAUUACGGUCA | -0.00492 ± 0.13 | 0.828 ± 0.15
50 | UGGAAGCAAUAUUACGGUGC | -2.93 ± 0.3 | -2.86 ± 0.43
51 | UGGAAGCAAUAUUACGUACC | -1.73 ± 0.19 | -0.601 ± 0.23
52 | UGGAAGCAAUAUUACGUAGG | -1.13 ± 0.067 | -1.05 ± 0.092

Row | Sequence | self-splicing fitness (ln) (30 °C) | self-splicing fitness (ln) (37 °C)
53 | UGGAAGCAAUAUUACGUAGU | -2.9 ± 0.27 | -1.41 ± 0.2
54 | UGGAAGCAAUAUUACGUAUG | -1.96 ± 0.16 | -0.289 ± 0.14
55 | UGGAAGCAAUAUUACGUGCA | -0.0243 ± 0.057 | -0.187 ± 0.067
56 | UGGCAGCAAUAUUACGAAGC | – | -1.72 ± 0.45
57 | UGGCAGCAAUAUUACGAAGG | -2.93 ± 0.18 | -1.21 ± 0.23
58 | UGGCAGCAAUAUUACGACGG | -0.817 ± 0.15 | 0.837 ± 0.17
59 | UGGCAGCAAUAUUACGACUA | 0.138 ± 0.07 | 0.38 ± 0.1
60 | UGGCAGCAAUAUUACGAGGA | -2.34 ± 0.34 | -1.75 ± 0.26
61 | UGGCAGCAAUAUUACGCAGC | – | -2.2 ± 0.39
62 | UGGCAGCAAUAUUACGCCCU | -0.69 ± 0.27 | –
63 | UGGCAGCAAUAUUACGCGCC | – | -2.9 ± 0.19
64 | UGGCAGCAAUAUUACGGAUA | -0.806 ± 0.098 | -0.358 ± 0.11
65 | UGGCAGCAAUAUUACGGGAU | -2.84 ± 0.23 | -2.48 ± 0.23
66 | UGGCAGCAAUAUUACGGGCC | – | -1.78 ± 0.28
67 | UGGCAGCAAUAUUACGUCCG | -0.782 ± 0.095 | -0.304 ± 0.13
68 | UGGCAGCAAUAUUACGUCUA | -0.425 ± 0.091 | 0.66 ± 0.11
69 | UGGCAGCAAUAUUACGUGAU | -1.46 ± 0.13 | -1.29 ± 0.17
70 | UGGCAGCAAUAUUACGUGCA | -0.0165 ± 0.1 | -0.0321 ± 0.14
71 | UGGCAGCAAUAUUACGUGCU | -2.71 ± 0.14 | -1.79 ± 0.17
72 | UGGCAGCAAUAUUACGUGGA | -2.38 ± 0.17 | -1.02 ± 0.13
73 | UGGCAGCAAUAUUACGUUGA | -1.43 ± 0.13 | -0.707 ± 0.14
74 | UGGGAGCAAUAUUACGAAGA | -2.99 ± 0.47 | -2.68 ± 0.33
75 | UGGGAGCAAUAUUACGACAU | -3.84 ± 0.039 | -2.9 ± 0.05
76 | UGGGAGCAAUAUUACGAGAG | -3.13 ± 0.32 | -2.85 ± 0.36
77 | UGGGAGCAAUAUUACGAUGG | -2.64 ± 0.18 | -2.77 ± 0.48
78 | UGGGAGCAAUAUUACGAUUU | -3.39 ± 0.3 | –

Row | Sequence | self-splicing fitness (ln) (30 °C) | self-splicing fitness (ln) (37 °C)
79 | UGGGAGCAAUAUUACGCAAA | – | -2.43 ± 0.45
80 | UGGGAGCAAUAUUACGCGUG | -2.51 ± 0.12 | -1.67 ± 0.12
81 | UGGGAGCAAUAUUACGCUAA | -2.74 ± 0.29 | -1.93 ± 0.31
82 | UGGGAGCAAUAUUACGCUGG | -1.91 ± 0.29 | -1.55 ± 0.35
83 | UGGGAGCAAUAUUACGGACA | -1.7 ± 0.14 | -0.535 ± 0.13
84 | UGGGAGCAAUAUUACGGAUU | -4.21 ± 0.31 | -3.06 ± 0.26
85 | UGGGAGCAAUAUUACGGCAC | – | -0.43 ± 0.35
86 | UGGGAGCAAUAUUACGGCCG | – | -1.37 ± 0.28
87 | UGGGAGCAAUAUUACGGCGA | -1.73 ± 0.36 | -1.23 ± 0.28
88 | UGGGAGCAAUAUUACGUGGU | -2.97 ± 0.35 | -1.56 ± 0.26
89 | UGGGAGCAAUAUUACGUUGU | -3.01 ± 0.23 | -2.2 ± 0.34
90 | UGGUAGCAAUAUUACGAAAA | -2.14 ± 0.19 | -0.612 ± 0.17
91 | UGGUAGCAAUAUUACGAACC | -2.54 ± 0.29 | -1.93 ± 0.28
92 | UGGUAGCAAUAUUACGAAGA | -1.45 ± 0.4 | -2.3 ± 0.49
93 | UGGUAGCAAUAUUACGAAUA | -0.911 ± 0.17 | -1.17 ± 0.16
94 | UGGUAGCAAUAUUACGAAUC | -2.14 ± 0.32 | –
95 | UGGUAGCAAUAUUACGACCG | -1.22 ± 0.22 | -0.981 ± 0.27
96 | UGGUAGCAAUAUUACGAGGG | – | -3.44 ± 0.33
97 | UGGUAGCAAUAUUACGAUCU | -0.554 ± 0.13 | 0.576 ± 0.18
98 | UGGUAGCAAUAUUACGAUUG | -0.422 ± 0.05 | 0.168 ± 0.073
99 | UGGUAGCAAUAUUACGCAAU | -2.59 ± 0.24 | -2.56 ± 0.33
100 | UGGUAGCAAUAUUACGCAGG | -2.77 ± 0.3 | -2.82 ± 0.48
101 | UGGUAGCAAUAUUACGCAUC | – | -3.68 ± 0.46
